The target in test [1] is Singapore16 N2 NA (head domain, residues 82-469) without VASP tetramerization domain (influenza A virus A/Singapore/INFIMH-16-0019/2016 (H3N2)). The experiment in a line: negative-stain electron microscopy.
In test [2] the target is Singapore16 N2 NA (head domain, residues 82-469) with VASP tetramerization domain (influenza A virus A/Singapore/INFIMH-16-0019/2016 (H3N2)). As to the kind of experiment: negative-stain electron microscopy.

For orientation: stoichiometry N means the number of molecules, sites or subunits per partner or assembly.

Turning to “Singapore16 N2 NA (head domain, residues 82-469) without VASP tetramerization domain (domain or fragment)”, the stoichiometry N in test [1] worked out at 4. In test [2], “Singapore16 N2 NA (head domain, residues 82-469) with VASP tetramerization domain (domain or fragment)” displayed a stoichiometry N of 4.

(Values after article PMC9772378.)
